The results in this text go back to the DeepSol protein solubility set.

This series is described as follows: soluble on expression in E. coli; label from the status in PepcDB or PDB records.
As to “MFSIFMRIPDTAQVDAVFSGAYASIEQGLCYDEVNDWENTLAMYEKGLNLIVEGEKMKNARKSEMWKMLQESKSSVQHRINVLKKEGPKQPTPKKIKEAEESVENEKEAIRMQLDSFGSQEADLIYFLPEGVQLFTIDGEKTTAPTAPTSLQILRFPQPTDGGASSDTLAFMQVGPWAYPLMGAKTPVLRNEFGAYLVANPTPENPNMTVAILLSSDIERRLIEELHIVLREFTDFKEQAEPSTELSKEEKNRISTTISNFLIKGGQKIAWGVETTTVRVISRVEDNGEQYRTTLIATDKPMQVSPVIKGSVVYMHKGTKTVAKCTRYLLDKIGDMGVSMGKKLADSAQRRFGDGKSGGLVSGTIEILGGGITGVATVWMSLEDGSRHLCRSIANQTVQNVKLKYGDDASDTTHHALFAAGHGTLAAAQLWDLGPRSVAGRMARKAGIQMVSDLHHSRKGSRLDQEVPALELKKAV”, the “soluble on expression in E. coli” value is reported as “not soluble”.

Turning to “MFSVRRYRHKRNSLNIDTREITLEPADNARLLSLCGPFDDNIKQLERRLGIEINRRDNHFKLTGRPICVTAATDILRSLYVDTAPMRGQTQDIEPEQIHLAIKEARVLEQSAESVPDYGKAINIKTKRGVIKPRTPNQAQYIANILDHDITFGVGPAGTGKTYLAVAAAVDALERQEIRRILLTRPAVEAGEKLGFLPGDLSQKVDPYLRPLYDALFEMLGFEKVEKLIERNVIEVAPLAYMRGRTLNDAFIILDESQNTTIEQMKMFLTRIGFNSKAVITGDVTQIDLPRNTKSGLRHAIEVLAEVDEISFNFFHSEDVVRHPVVARIVNAYEAWEEAEQKRKAALAAERKREAQEQEQK”, the “soluble on expression in E. coli” value was “not soluble”.

As for “MFVRICAMFGFVSDLLTAAVSSLDELLQDTPAHQIILGTAALYFLYNQYHNPSISRWYRSRNNASMKQRIIDSAYALAKNLPGVNQIIEKELNKELSSTREKLRIQRSGMTLREEIPEEGLSPQDILSAFDVDVEKCHFDFLSVTNDSPEREFLVERGDGKDSGALYAIHPKELTELLKEVYGATALTNPLHDKWPRINAMQAEVIRWCQNLFHGSKECYGLLTHGGTTSIIEAMAAYVIRARAKGIDYPEIVVPETAHAAFKKAAELTGAILITVPVDKKTGAVNPKVMSSYITRNTAVIVGSAPSFMNGIHDPVSELGQLAKKKNVPFHVDACLGGFLTAFLDTSSEPMDFRVPGVTSISADLHKYGCCPKGTSVCLFSEDSPALSVYAALNWSGGLYATPGILDGSTSGARVAEVYATLSYYGKNKYQEIAKSIITLRNAIQKELTTLLEEGNGLTSEDIYVYGNPQWSILGFRSNTCNAHFIADELEKRGWKLNLLQNPDGFHLCLTHVHTLVKGFETQFIKDLREAVIDVKNYPPGKKPSGNVKVYGAVGMMPIELQREICKQYQKARLNYTSASPGSLRIFTNVPVEEDEGLRNRKTEKYKV”, the “soluble on expression in E. coli” value is reported as “not soluble”.

As for “MFVRSLFLALLLATIVAADIDFSTCARMDVPILKKAAQGLCITSCSMQNCGTGSCKKRSGRPTCVCYRCANGGGDIPLGALIKRG”, the “soluble on expression in E. coli” value was “not soluble”.

Turning to “MFYRDVLIESRERNIFMSKELQIRNSTVDFLVFTRDAREDGIEVRVQNGDVWLTQKAISQLFDVDRSVVTKHLSNIFKEGELDENSTCANFAQVADNGKTYNYKFYSLAAIIAVGYRINSERAMQFRTWATKVLDTFTKQGYVLDKSRLINGQIFDEDYFEHLIAEIQEIRASERRFYQKITDIYATAVDYDKNSQVTREFYATVQNKMHYAVHGNTAAEVIVARANHNKKHMGLKSWKNAPDGKIVKTDVSIAKNYLEKEELAELNEIVTMYLDYATRQARRHIPMTMEDWKTKLDAFLRFNDAEVLQDKGKVTAAIAKEFAESEFEKYRVIQDSLYESDFDKLMNDMEKNDAIH”, the “soluble on expression in E. coli” value is given as “not soluble”.

With “MGADLRYNMEITLEEAFAGKTAQIRVPTSITCDVCSGSGAKPGTQPKTCATCQGSGRVRAAQGFFSVERTCPTCHGRGQTISDPCGKCHGQGRVTEERSLSVNIPSGIEDGTRIRLQGEGEAGMRGGPAGDLYIFLSVRPHEFFQRDGADLYCTVPISMTTAALGGTFDVTTLDGTKSRVTVPEGTQPGKQFRLKGKGMPVLRSAQTGDLYIQIQIETPQKLSKRQRELLQEFEQLSSKENNPLEHHHHHH”, the “soluble on expression in E. coli” value is “soluble”.
